Results published in publication doi:10.1101/2021.06.29.450403 (bioRxiv, 2021).
Values belong to the binder of their own block, whether it stands above or below them.

How the values were obtained:
Chicken calmodulin (CaM) [1] = biological target: T1, Chicken calmodulin (CaM) (chicken, UniProt P62149 1-149); assay: NMR titration
Chicken calmodulin (CaM) [2] = biological target: T1, Chicken calmodulin (CaM); assay: steady-state intrinsic Trp fluorescence
[3] = biological target: recombinant rAQP4ct protein (complete cytosolic C-terminal domain of human AQP4, residues 254-323) (human, UniProt P55087-1 254-323); assay: steady-state intrinsic Trp fluorescence

binding result (Chicken calmodulin (CaM) [1]): binds
Binder: PTARRWGKSGPLSTR [recombinant rAQP4nt6-19 truncated peptide]

Kd (Chicken calmodulin (CaM) [1]): 3.4 µM | stoichiometry N (Chicken calmodulin (CaM) [1]): 1
Binder: Ac-TARRWGKSGPLSTRENIMVAFKGVWT-NH2 [human AQP4nt synthetic peptide (residues 6-31, two Cys modified to Ser)]

binding result (Chicken calmodulin (CaM) [2]): binds
Binder: PTARRWGKSGPLSTRENIMVAFKGVAT [recombinant rAQP4ntW30A peptide]

binding result [3]: binds
B1: CaM bound AQP4nt-W30A peptide (complex)
chain 1: […]
chain 2: PTARRWGKSGPLSTRENIMVAFKGVAT

apparent Kd, C-lobe of CaM (first binding event) (Chicken calmodulin (CaM) [1]): 3.6 µM | apparent Kd, N-lobe of CaM (second binding event) (Chicken calmodulin (CaM) [1]): 114 µM | stoichiometry N (Chicken calmodulin (CaM) [1]): 2
Binder: Ac-VEFKRRFKEAFSKAAQQTKGSYMEV-NH2 [human AQP4ct synthetic peptide (residues 256-280)]
